Measurements: patent US20150132307A1

Experiments:
[1] = target: recombinant human IL-17 (Peprotech #200-17) (human) (UniProt Q16552); experiment: binding ELISA according to example 2; mouse IL17 antibodies compared (Mab 317 = 100)
[2] = target: cynomolgous IL-17A (cynomolgous); experiment: as above
[3] = target: recombinant human IL-17 (Peprotech #200-17) (human) (UniProt Q16552); experiment: binding ELISA according to example 2; human and humanized IL17 antibodies compared (NVP-AIN-497 = 100)
[4] = target: cynomolgous IL-17A (cynomolgous); experiment: as above
[5] = target: Human IL17F (human) (UniProt Q96PD4); experiment: ELISA, coated IL-17 subtype, antibody 10 µg/ml, OD 405/492 nm
Chain of Human IL17F (human) (Q96PD4 31-163 limits assumed): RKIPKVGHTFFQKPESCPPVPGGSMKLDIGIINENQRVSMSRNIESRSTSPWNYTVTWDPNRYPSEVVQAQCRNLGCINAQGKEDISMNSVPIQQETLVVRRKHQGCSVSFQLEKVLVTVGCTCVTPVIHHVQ

[6] = target: Human IL17E (human) (UniProt Q9H293); experiment: as above
Chain of Human IL17E (human) (Q9H293 33-177 limits assumed): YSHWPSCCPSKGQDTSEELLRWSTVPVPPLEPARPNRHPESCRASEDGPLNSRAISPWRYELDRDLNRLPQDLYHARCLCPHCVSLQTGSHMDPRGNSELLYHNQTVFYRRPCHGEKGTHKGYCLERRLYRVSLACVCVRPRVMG

[7] = target: Human IL17B (human) (UniProt Q9UHF5); experiment: as above
Chain of Human IL17B (human) (Q9UHF5 21-180 limits assumed): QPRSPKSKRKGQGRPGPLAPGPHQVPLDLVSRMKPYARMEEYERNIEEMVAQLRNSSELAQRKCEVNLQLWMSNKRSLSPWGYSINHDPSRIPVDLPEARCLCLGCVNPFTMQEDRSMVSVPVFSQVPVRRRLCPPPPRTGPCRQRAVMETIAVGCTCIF

[8] = target: Human IL17C (human) (UniProt Q9P0M4); experiment: as above
Chain of Human IL17C (human) (Q9P0M4 19-197 limits assumed): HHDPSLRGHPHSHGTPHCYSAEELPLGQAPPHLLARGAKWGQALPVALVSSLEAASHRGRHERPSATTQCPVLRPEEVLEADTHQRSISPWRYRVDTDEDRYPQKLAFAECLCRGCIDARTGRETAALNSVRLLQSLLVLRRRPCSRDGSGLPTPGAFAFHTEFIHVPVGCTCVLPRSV

[9] = target: recombinant human IL-17 (Peprotech #200-17) (human) (UniProt Q16552); experiment: ELISA, coated IL-17 subtype 0.5 µg/ml, antibody 10 µg/ml, OD 405/492 nm
[10] = target: Human IL17D (human) (UniProt Q8TAD2); experiment: ELISA, coated IL-17 subtype, antibody 10 µg/ml, OD 405/492 nm
Chain of Human IL17D (human) (Q8TAD2 16-202 limits assumed): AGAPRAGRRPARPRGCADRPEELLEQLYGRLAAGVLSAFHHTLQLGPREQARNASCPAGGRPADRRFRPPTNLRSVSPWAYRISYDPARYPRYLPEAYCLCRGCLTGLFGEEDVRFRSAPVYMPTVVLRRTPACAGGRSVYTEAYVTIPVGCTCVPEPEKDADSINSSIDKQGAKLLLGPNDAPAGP

[11] = target: recombinant human IL-17 (Peprotech #200-17) (human) (UniProt Q16552); experiment: cell-based or functional assay

Chain of recombinant human IL-17 (Peprotech #200-17) (human) (Q16552 20-155 limits assumed): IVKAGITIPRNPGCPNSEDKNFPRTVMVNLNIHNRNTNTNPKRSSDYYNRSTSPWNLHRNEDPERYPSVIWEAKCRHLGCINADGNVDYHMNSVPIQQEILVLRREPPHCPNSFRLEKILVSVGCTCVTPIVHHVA

| Relative binding to human IL-17A in % [1] [%] | Relative binding to cynomolgous IL-17A in % [2] [%] | Relative binding to human IL-17A [3] [%] | Relative binding to cynomolgous IL-17A [4] [%] | Binding (IL-17A binding set as 100) (% of IL-17A binding) [5] | Binding (IL-17A binding set as 100) (% of IL-17A binding) [6] | Binding (IL-17A binding set as 100) (% of IL-17A binding) [7] | Binding (IL-17A binding set as 100) (% of IL-17A binding) [8] | Binding (IL-17A binding set as 100) (% of IL-17A binding) [9] | Binding (IL-17A binding set as 100) (% of IL-17A binding) [10] | IL-6 Inhibition IC50 (nM) (CCD-25SK cells, IL-17A + TNF-alpha) [11] | Substance |
| --- | --- | --- | --- | --- | --- | --- | --- | --- | --- | --- | --- |
| 122 | 124 | – | – | – | – | – | – | – | – | – | eBio64CAP17 (antibody) |
| – | – | 100 | 100 | 62 | 3 | 2 | 2 | 100 | – | – | NVP-AIN-497 (WO 2006/013107) (antibody) |
| – | – | – | – | 5 | 5 | 7 | 97 | 100 | 6 | – | Mab 16-7178-85 of eBioscience (antibody) |
| – | – | – | – | – | – | – | – | 100 | – | 2.8 | MAB 317 of R&D Systems (antibody) |
